# Measured values: the supplement of paper PMC5998384
# How the values were obtained:
# HeLa Kyoto [1] = assay: solubility change mitosis vs G1/S (difference of NP-40 vs SDS log2 ratios) (log2 ratio difference); higher = more soluble in mitosis
# HeLa Kyoto [2] = assay: melting temperature (median over replicates), in situ; higher = more thermally stable
# HeLa Kyoto [3] = assay: solubility in G1/S (NP-40 vs SDS abundance) (log2 ratio); higher = more soluble; conditions: cell cycle stage: G1/S
# 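For melting temperature (median over replicates), in situ in this document: HeLa Kyoto cells synchronized by double thymidine or nocodazole block, proteins quantified by TMT10plex mass spectrometry, three independent biological replicates.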
# 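For solubility change mitosis vs G1/S (difference of NP-40 vs SDS log2 ratios) in this document: synchronized HeLa Kyoto cells (double thymidine block for G1/S, nocodazole release for mitosis), protein amounts in NP-40 versus SDS lysates quantified by mass spectrometry, three biological replicates.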
# 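For solubility in G1/S (NP-40 vs SDS abundance) in this document: HeLa Kyoto cells arrested at G1/S by double thymidine block, proteins quantified by TMT10plex mass spectrometry in mild NP-40 versus SDS extracts, three biological replicates.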
Sequence,solubility change mitosis (log2) (HeLa Kyoto [1]),melting temperature (HeLa Kyoto [2]; cell cycle stage: G1/S) [°C],melting temperature (HeLa Kyoto [2]; cell cycle stage: mitosis) [°C],solubility in G1/S (log2) (HeLa Kyoto [3])
MAVLKLTDQPPLVQAIFSGDPEEIRMLIHKTEDVNTLDSEKRTPLHVAAFLGDAEIIELLILSGARVNAKDNMWLTPLHRAVASRSEEAVQVLIKHSADVNARDKNWQTPLHVAAANKAVKCAEVIIPLLSSVNVSDRGGRTALHHAALNGHVEMVNLLLAKGANINAFDKKDRRALHWAAYMGHLDVVALLINHGAEVTCKDKKGYTPLHAAASNGQINVVKHLLNLGVEIDEINVYGNTALHIACYNGQDAVVNELIDYGANVNQPNNNGFTPLHFAAASTHGALCLELLVNNGADVNIQSKDGKSPLHMTAVHGRFTRSQTLIQNGGEIDCVDKDGNTPLHVAARYGHELLINTLITSGADTAKCGIHSMFPLHLAALNAHSDCCRKLLSSGFEIDTPDKFGRTCLHAAAAGGNVECIKLLQSSGADFHKKDKCGRTPLHYAAANCHFHCIETLVTTGANVNETDDWGRTALHYAAASDMDRNKTILGNAHDNSEELERARELKEKEATLCLEFLLQNDANPSIRDKEGYNSIHYAAAYGHRQCLELLLERTNSGFEESDSGATKSPLHLAAYNGHHQALEVLLQSLVDLDIRDEKGRTALDLAAFKGHTECVEALINQGASIFVKDNVTKRTPLHASVINGHTLCLRLLLEIADNPEAVDVKDAKGQTPLMLAVAYGHIDAVSLLLEKEANVDTVDILGCTALHRGIMTGHEECVQMLLEQEVSILCKDSRGRTPLHYAAARGHATWLSELLQMALSEEDCCFKDNQGYTPLHWACYNGNENCIEVLLEQKCFRKFIGNPFTPLHCAIINDHGNCASLLLGAIDSSIVSCRDDKGRTPLHAAAFADHVECLQLLLRHSAPVNAVDNSGKTALMMAAENGQAGAVDILVNSAQADLTVKDKDLNTPLHLACSKGHEKCALLILDKIQDESLINEKNNALQTPLHVAARNGLKVVVEELLAKGACVLAVDENASRSNGPRSTPGTAVQKEE [ANKRD44],-0.0872,51.7,52.2,-0.235
MDALEGESFALSFSSASDAEFDAVVGYLEDIIMDDEFQLLQRNFMDKYYLEFEDTEENKLIYTPIFNEYISLVEKYIEEQLLQRIPEFNMAAFTTTLQHHKDEVAGDIFDMLLTFTDFLAFKEMFLDYRAEKEGRGLDLSSGLVVTSLCKSSSLPASQNNLRH [ARL2BP],0.0405,50.9,53,-0.148
MDDSETGFNLKVVLVSFKQCLDEKEEVLLDPYIASWKGLVRFLNSLGTIFSFISKDVVSKLRIMERLRGGPQSEHYRSLQAMVAHELSNRLVDLERRSHHPESGCRTVLRLHRALHWLQLFLEGLRTSPEDARTSALCADSYNASLAAYHPWVVRRAVTVAFCTLPTREVFLEAMNVGPPEQAVQMLGEALPFIQRVYNVSQKLYAEHSLLDLP [CPTP],-0.256,49.1,48.4,-0.0351
MDFENLFSKPPNPALGKTATDSDERIDDEIDTEVEETQEEKIKLECEQIPKKFRHSAISPKSSLHRKSRSKDYDVYSDNDICSQESEDNFAKELQQYIQAREMANAAQPEESTKKEGVKDTPQAAKQKNKNLKAGHKNGKQKKMKRKWPGPGNKGSNALLRNSGSQEEDGKPKEKQQHLSQAFINQHTVERKGKQICKYFLERKCIKGDQCKFDHDAEIEKKKEMCKFYVQGYCTRGENCLYLHNEYPCKFYHTGTKCYQGEYCKFSHAPLTPETQELLAKVLDTEKKSCK [ZC3H8],0.444,55.1,55.1,-0.126
MDLPVGPGAAGPSNVPAFLTKLWTLVSDPDTDALICWSPSGNSFHVFDQGQFAKEVLPKYFKHNNMASFVRQLNMYGFRKVVHIEQGGLVKPERDDTEFQHPCFLRGQEQLLENIKRKVTSVSTLKSEDIKIRQDSVTKLLTDVQLMKGKQECMDSKLLAMKHENEALWREVASLRQKHAQQQKVVNKLIQFLISLVQSNRILGVKRKIPLMLNDSGSAHSMPKYSRQFSLEHVHGSGPYSAPSPAYSSSSLYAPDAVASSGPIISDITELAPASPMASPGGSIDERPLSSSPLVRVKEEPPSPPQSPRVEEASPGRPSSVDTLLSPTALIDSILRESEPAPASVTALTDARGHTDTEGRPPSPPPTSTPEKCLSVACLDKNELSDHLDAMDSNLDNLQTMLSSHGFSVDTSALLDLFSPSVTVPDMSLPDLDSSLASIQELLSPQEPPRPPEAENSSPDSGKQLVHYTAQPLFLLDPGSVDTGSNDLPVLFELGEGSYFSEGDGFAEDPTISLLTGSEPPKAKDPTVS [HSF1],-0.148,47.9,49.8,0.523
MDSELKEEIPVHEEFILCGGAETQVLKCGPWTDLFHDQSVKRPKLLIFIIPGNPGFSAFYVPFAKALYSLTNRRFPVWTISHAGHALAPKDKKILTTSEDSNAQEIKDIYGLNGQIEHKLAFLRTHVPKDMKLVLIGHSIGSYFTLQMLKRVPELPVIRAFLLFPTIERMSESPNGRIATPLLCWFRYVLYVTGYLLLKPCPETIKSLLIRRGLQVMNLENEFSPLNILEPFCLANAAYLGGQEMMEVVKRDDETIKEHLCKLTFYYGTIDPWCPKEYYEDIKKDFPEGDIRLCEKNIPHAFITHFNQEMADMIADSLKDDLSKM [LDAH],-0.331,52.3,,0.0802
